Target: T1, HLA-A*02:01 (human)
T1 construct: monomers captured on streptavidin plates; also called MHC class I
Assay: UV peptide exchange ELISA
Method in brief: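 Peptide-MHC complexes formed by UV-triggered exchange of a cleavable peptide for the test peptide, with stabilised complexes indicating binding. Exchange products diluted 100 fold onto streptavidin-coated wells, 1h at 37° C.; HRP anti-β2m (2 μg/ml), TMB, absorbance at 450 nm gives exchange yield.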

| Binder | peptide exchange yield |
| --- | --- |
| LLADVTHLL | 20 to 50% |
| SLLKEPQKVQL | 20 to 50% |
| ALLHPQGFEV | 20 to 50% |
| YLLQEIYGI | 50 to 75% |
| KMLGIPISNILMV | 50 to 75% |
| ALLPLSPYL | 50 to 75% |
| RLADKSVLV | 50 to 75% |
| KLAEGLDIQL | 50 to 75% |
| YLDDLNEGVYI | 20 to 50% |
| AMLNEPWAV | 50 to 75% |
| SLVNVVPKL | 20 to 50% |
| KLLEATSAV | 20 to 50% |
| LLLLDTVTMQV | 20 to 50% |
| SLVESHLSDQLTL | 50 to 75% |
| SLLTEQDLWTV | 20 to 50% |
| YVYPQRLNFV | 50 to 75% |
| TLIEESAKV | 20 to 50% |
| ALITEVVRL | 20 to 50% |
| NLLETKLQL | 50 to 75% |
| LLDAMNYHL | 20 to 50% |
| LILDWVPYI | 50 to 75% |
| QLLDETSAITL | 50 to 75% |
| VLDDSIYLV | 20 to 50% |
| HLAEVSAEV | 50 to 75% |
| FIDEAYVEV | 20 to 50% |

| Binder | peptide exchange yield |
| --- | --- |
| ILFANPNIFV | 50 to 75% |
| SLIDKLYNI | 20 to 50% |
| VLLSLLEKV | 20 to 50% |
| ILFRYPLTI | 50 to 75% |
| ALLPDLPAL | 50 to 75% |
| LLAVIGGLVYL | 50 to 75% |
| AMLEKNYKL | ≥ 75% |
| SLLEQGLVEA | 20 to 50% |
| SLLPGNLVEKV | 50 to 75% |
| KLLPLAGLYL | ≥ 75% |
| ILVEADSLWVV | 50 to 75% |
| KLGHTDILVGV | 20 to 50% |
| KVSNSGITRV | 20 to 50% |
| YLAPELFVNV | 20 to 50% |
| KLPPPPPQA | 50 to 75% |
| ALFQATAEV | ≥ 75% |
| KLLEEDGTIITL | 20 to 50% |
| VMFRTPLASV | 20 to 50% |
| QLCDLNAEL | 50 to 75% |
| ALLELENSVTL | 50 to 75% |
| YLFGERLLEC | 50 to 75% |
| YLMDLINFL | 50 to 75% |
| GLWEIENNPTV | 50 to 75% |
| ALLENPKMEL | 50 to 75% |
| LLIGHLERV | 50 to 75% |

| Binder | peptide exchange yield |
| --- | --- |
| ILLEHGADPNL | 50 to 75% |
| ALYDVFLEV | 20 to 50% |
| ALALGGIAVV | ≥ 75% |
| ILLDDTGLAYI | 50 to 75% |
| GLLGGGGVLGV | 50 to 75% |
| QLIPALAKV | 50 to 75% |
| QLVPALAKV | 20 to 50% |
| VLFSGALLGL | 20 to 50% |
| KLYDRILRV | 20 to 50% |
| SMAPGLVIQAV | 50 to 75% |
| KLAKQPETV | 50 to 75% |
| GLVNDLARV | 20 to 50% |
| ALNDCIYSV | 50 to 75% |
| YLFEPLYHV | 50 to 75% |
| GLLDTQTSQVLTA | 20 to 50% |
| FMIDASVHPTL | 50 to 75% |
| HLYSSIEHLTT | 50 to 75% |
| KLDDLTQDLTV | 20 to 50% |
| ALQNYIKEA | 20 to 50% |
| ALADGVTMQV | 20 to 50% |
| ALFMKQIYL | 50 to 75% |
| TLIEDEIATI | 20 to 50% |
| GLLRDEALAEV | 50 to 75% |

— US20170037110A1 (IMMATICS BIOTECHNOLOGIES, published 2017)
